Assay results: article PMC9516340, “Familial ALS-associated SFPQ variants promote the formation of SFPQ cytoplasmic aggregates in primary neurons” (Open Biology, 2022)

Target: the molecule itself
Experiment: crystal structure; hanging-drop vapour diffusion at 20°C; SFPQ-276-535 L534I (His6-tag removed) mixed 1:1 with RXRα-DBD-130-228 as source of Zn(II); reservoir 0.1 M MES (pH 6.0), 0.2 M calcium chloride, 12% (w/v) PEG 4000; space group P2(1), two protein molecules per asu; 1.83 Å

B1: SFPQ-276-535 L534I (dimerization domain of human splicing factor proline- and glutamine-rich, fALS-associated L534I variant) (domain or fragment, UniProt P23246 276-535, looked up)
chain: EGFKANLSLLRRPGEKTYTQRCRLFVGNLPADITEDEFKRLFAKYGEPGEVFINKGKGFGFIKLESRALAEIAKAELDDTPMRGRQLRVRFATHAAALSVRNLSPYVSNELLEEAFSQFGPIERAVVIVDDRGRSTGKGIVEFASKPAARKAFERCSEGVFLLTTTPRPVIVEPLEQLDDEDGLPEKLAQKNPMYQKERETPPRFAQHGTFEYEYSQRWKSLDEMEKQQREQVEKNMKDAKDKLESEMEDAYHEHQANIL
notes: also called SFPQ L534I
**Q.** Does B1 bind?
**A.** Result: binds
